For the data set, the target named is apolipoprotein A-1 (ApoA1) (UniProt P02647 25-267). The experiment in a line: electrochemical aptasensor.
apolipoprotein A-1 (ApoA1), sequence (P02647 25-267): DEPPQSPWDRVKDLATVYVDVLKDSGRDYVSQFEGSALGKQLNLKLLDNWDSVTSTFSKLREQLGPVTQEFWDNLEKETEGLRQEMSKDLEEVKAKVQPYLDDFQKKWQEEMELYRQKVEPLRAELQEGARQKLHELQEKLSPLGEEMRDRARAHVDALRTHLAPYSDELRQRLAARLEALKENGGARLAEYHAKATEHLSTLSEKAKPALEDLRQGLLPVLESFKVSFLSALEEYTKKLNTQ

As to CCTCGGCACGTTCTCAGTAGCGCTCGCTGGTCATCCCACA (ssDNA, 5'-thiol-C6) [ApoA1 thiolated aptamer], the binding result was “binds”.
